Here are results for one molecule from publication PMC9335864.

For the experiment, the target named is N-terminal Nanoluciferase-tagged p97-N domain (human). The experiment is described as follows: FRET or BRET; NanoBRET in p47-knockout U2OS cells: Nanoluciferase-p97-N donor, p47-UBX-HaloTag acceptor, co-transfected with antibody-fragment or p47-FLAG plasmids; compared with scFv-RNase and scFab-RNase controls.
Chain of N-terminal Nanoluciferase-tagged p97-N domain (human) (P55072 2-806): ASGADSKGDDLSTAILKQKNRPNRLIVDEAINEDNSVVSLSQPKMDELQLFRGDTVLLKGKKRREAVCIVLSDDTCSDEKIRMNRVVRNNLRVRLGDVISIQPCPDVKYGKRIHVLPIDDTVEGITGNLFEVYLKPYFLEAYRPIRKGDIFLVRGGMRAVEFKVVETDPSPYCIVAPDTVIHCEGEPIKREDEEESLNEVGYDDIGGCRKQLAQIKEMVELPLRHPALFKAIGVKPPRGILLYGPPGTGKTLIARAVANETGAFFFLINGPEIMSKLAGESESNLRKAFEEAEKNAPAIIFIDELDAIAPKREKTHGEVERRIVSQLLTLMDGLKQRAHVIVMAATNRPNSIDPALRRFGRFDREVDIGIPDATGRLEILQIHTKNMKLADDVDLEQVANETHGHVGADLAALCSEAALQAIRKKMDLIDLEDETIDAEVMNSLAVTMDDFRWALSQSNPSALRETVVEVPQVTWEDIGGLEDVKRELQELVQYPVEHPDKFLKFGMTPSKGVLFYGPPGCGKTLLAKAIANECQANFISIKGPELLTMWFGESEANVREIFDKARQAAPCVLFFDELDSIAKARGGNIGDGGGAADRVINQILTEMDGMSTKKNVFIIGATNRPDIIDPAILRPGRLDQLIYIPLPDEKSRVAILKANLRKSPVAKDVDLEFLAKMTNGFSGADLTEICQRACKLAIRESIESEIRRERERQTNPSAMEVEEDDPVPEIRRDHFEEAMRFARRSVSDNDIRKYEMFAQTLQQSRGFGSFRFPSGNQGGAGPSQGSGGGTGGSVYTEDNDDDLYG

B1: p47-FLAG (natural protein)
chain: MAAERQEALREFVAVTGAEEDRARFFLESAGWDLQIALASFYEDGGDEDIVTISQATPSSVSRGTAPSDNRVTSFRDLIHDQDEDEEEEEGQRFYAGGSERSGQQIVGPPRKKSPNELVDDLFKGAKEHGAVAVERVTKSPGETSKPRPFAGGGYRLGAAPEEESAYVAGEKRQHSSQDVHVVLKLWKSGFSLDNGELRSYQDPSNAQFLESIRRGEVPAELRRLAHGGQVNLDMEDHRDEDFVKPKGAFKAFTGEGQKLGSTAPQVLSTSSPAQQAENEAKASSSILIDESEPTTNIQIRLADGGRLVQKFNHSHRISDIRLFIVDARPAMAATSFILMTTFPNKELADESQTLKEANLLNAVIVQRLT
B1: the reduction of the BRET ratio of the p97-N/p47-UBX pair is 15%.
